Source: paper doi:10.1101/2025.11.17.688803

Target: endogenous LRBA of mouse embryonic fibroblasts (mouse (endogenous in MEFs)) (UniProt Q9ESE1)
Assay: SEC

Work on “endogenous LRBA of mouse embryonic fibroblasts (from UniProt Q9ESE1 1-2856) (natural protein)” yielded a stoichiometry N of 2.
